{"source": "patent US8465735B2", "about": "“Variant form of urate oxidase and use thereof” (Savient Pharmaceuticals, Inc., priority 2005, dated 2013)", "proteins": {"B1": {"name": "Pig uricase, native (Sigma) (Sus scrofa) (protein)", "chain": "MAHYRNDYKKNDEVEFVRTGYGKDMIKVLHIQRDGKYHSIKEVATSVQLTLSSKKDYLHGDNSDVIPTDTIKNTVNVLAKFKGIKSIETFAVTICEHFLSSFKHVIRAQVYVEEVPWKRFEKNGVKHVHAFIYTPTGTHFCEVEQIRNGPPVIHSGIKDLKVLKTTQSGFEGFIKDQFTTLPEVKDRCFATQVYCKWRYHQGRDVDFEATWDTVRSIVLQKFAGPYDKGEYSPSVQKTLYDIQVLTLGQVPEIEDMEISLPNIHYLNIDMSKMGLINKEEVLLPLDNPYGRITGTVKRKLTSRL"}}, "substrate": "O=c1[nH]c(=O)c2[nH]c(=O)[nH]c2[nH]1", "assay": "purified protein, by the assay type", "details": "other: sodium borate buffer, pH 9.2, 25.0 °C", "data": [{"protein": "B1", "values": [{"measurement": "Km", "result": 5.85, "unit": "µM"}, {"measurement": "kcat", "result": 15, "unit": "s⁻¹"}]}]}
